These results are taken from patent US20190218553, “VON WILLEBRAND FACTOR (VWF)-TARGETING AGENTS AND METHODS OF USING THE SAME” (DUKE UNIVERSITY, published 2019).

A word on the Kd: it is the free concentration of one partner at which half of the binding sites on the other are occupied at equilibrium, for simple one-to-one binding. A high value points to lower affinity.

Data set [1] deals with T1, von Willebrand factor (VWF) (Homo sapiens, UniProt P04275 P04275:764-2813). As to the kind of experiment: filter; Bmax 73%; 2 mM CaCl2, 37 C. Particulars: tags: factor VIII free human purified VWF, Haematologic Technologies Inc; label: 5'-32P. How it is done:
(§1) Affinity constants (Kd values) were determined using double-filter nitrocellulose filter binding assays (Rusconi et al, Thromb. Haemost. $4:841-848 (2000)). All binding studies were performed in binding buffer F (20 mM HEPES, pH 7.4, 150 mM NaCl, 2 mM CaCl₂, and 0.01% BSA) at 37° C. Human purified VWF (factor VIII free) was purchased from Haematologic Technologies Inc. (Essex Junction, Vt.) and used in the double-filter nitrocellulose filter binding assay to determine the Kd of the aptamers. Briefly, RNA were end-labeled at the 5′ end with T4 polynucleotide kinase (New England Biolabs, Beverly, Mass.) and [γ³²P] ATP (Amersham Pharmacia Biotech, Piscataway, N.J.) (Fitzwater and Polisky, Methods Enzymol. 267:275-301 (1996)). End-labeled RNA was diluted in binding buffer F, heat denatured at 65° C. for 5 minutes, and subsequently equilibrated at 37° C. Direct binding was performed by incubating trace ³²P-RNA with varying concentrations of VWF protein in binding buffer F at 37° C. for 5 min. The fraction of the nucleic acid-protein complex which bound to the nitrocellulose membrane was quantified with a phosphorimager (Molecular Dynamics, Sunnyvale, Calif.). Non-specific binding of the radiolabeled nucleic acid was subtracted out of the binding such that only specific binding remained (Wong and Lohman, Proc. Natl. Acad. Sci. USA 90:5428-5432 (1993)).

The target of data set [2] is T1, von Willebrand factor (VWF). In words: filter; Bmax 87%; 2 mM CaCl2, 37 C. Conditions: Haematologic Technologies Inc, label: 5'-32P. How it is done: as §1
Data set [3] shares this target. As to the kind of experiment: filter; Bmax 67%; 2 mM CaCl2, 37 C. Conditions: Haematologic Technologies Inc, label: 5'-32P. How it is done: as §1
For data set [4] the target is unchanged. In words: filter; Bmax 71%; 2 mM CaCl2, 37 C. Conditions: tags: factor VIII free human purified VWF, Haematologic Technologies Inc; label: 5'-32P. How it is done:
as §1

Data set [5] shares this target. As to the kind of experiment: filter; Bmax 13%; 2 mM CaCl2, 37 C. Particulars: tags: factor VIII free, Haematologic Technologies Inc; label: 5'-32P. How it is done: as §1
Data set [6] shares this target. In words: filter; Bmax 54%; 2 mM CaCl2, 37 C. Conditions: tags: factor VIII free, Haematologic Technologies Inc; label: 5'-32P. How it is done: as §1
The target is the same in data set [7]. As to the kind of experiment: filter; Bmax 49%; 2 mM CaCl2, 37 C. Conditions: tags: factor VIII free, Haematologic Technologies Inc; label: 5'-32P. The procedure:
as §1

Data set [8] shares this target. In words: filter; Bmax 58%; 2 mM CaCl2, 37 C. Conditions: tags: factor VIII free, Haematologic Technologies Inc; label: 5'-32P. The procedure:
as §1

The target is the same in data set [9]. In words: filter; Bmax 57%; 2 mM CaCl2, 37 C. Particulars: tags: factor VIII free, Haematologic Technologies Inc; label: 5'-32P. How it is done:
as §1

For data set [10] the target is unchanged. As to the kind of experiment: filter; Bmax 80%; 2 mM CaCl2, 37 C. Particulars: tags: factor VIII free human purified VWF, Haematologic Technologies Inc; label: 5'-32P. How it is done: as §1
Data set [11] shares this target. As to the kind of experiment: filter; Bmax 56%; 2 mM CaCl2, 37 C. Particulars: tags: factor VIII free, Haematologic Technologies Inc; label: 5'-32P. The procedure: as §1
The mark [12] stands for this setting: tags: factor VIII free human purified VWF.

B1: T83 vrt1 (ssRNA)
RNA: ACGAACUGCCCUCGAUCGACGCACAGACGUAAAAA
modifications: 2'-F C2,U7,C9,C10,C11,U12,C20,C22,C28,U30; ribo A1,G3,G8,A19,G21,A23,G29; rest 2'-OMe; 3' idT
Turning to B1, the Kd in data set [1] turned out to be 2.1 nM.

Turning to ACGAACUGCCCUCGAUCGACGCACAGACGUACCCG (ssRNA, 2'-F C9,C10,C11,C20,C22; ribo G21; rest 2'-OMe; 3' idT) [T82 vrt4], binding in [2] (setting [12]) was characterised by a dissociation constant (Kd) of 38.5 nM. As for ACGAACUGCCCUCGAUCGACGCACAGACGUAAAAA (ssRNA, 2'-F C9,C10,C11,C20,G21,C22,U30; rest 2'-OMe; 3' idT) [T83 vrt6], in data set [3] (setting [12]), the Kd was determined as 209 nM.

On to ACGAACUGCCCUCGAUCGACGCACAGACGUACACG (ssRNA, 2'-F C9,C10,C11,C20,G21,C22,U30; rest 2'-OMe; 3' idT) [T84 vrt6], for which, in data set [4], the Kd was determined as 149 nM. For the molecule ACGAACUGCCCUCGAUCGACGCACAGACGUACCCG (ssRNA, 2'-F C9,C10,C11,C20,G21,C22,U30; rest 2'-OMe; 3' idT) [T82 vrt6], the Kd in data set [3] (setting [12]) was found to be 223 nM. Molecule ACGAACUGCCCUAUUAUUACGCACAGACGU (ssRNA, 2'-F C and U; 2'-OH A and G; 3' idT) [T64] yielded a Kd in data set [5] of 54 nM. As to ACGAACUGCCCUCAGCAUUUCAUUGCUGACGCACAGACGU (ssRNA, 2'-F C and U; 2'-OH A and G; 3' idT) [T40], in data set [6], binding was put at a Kd of 11 nM. In data set [7], ACGAACUGCCCUCAGCACUUAUGUGCUGACGCACAGACGU (ssRNA, 2'-F C and U; 2'-OH A and G; 3' idT) [T41] came in with a Kd of 8.6 nM.

B2: T11 (ssRNA)
RNA: GGGAGGACGAACUGCCCUCAGCUACUUUCAUGUUGCUGACGCACAGACGACUCGCUG
modifications: 2'-F C and U; 2'-OH A and G
B2: the Kd in data set [6] is 16.5 nM. In data set [8], CCGAACUGCCCUCGAUCGACGCACAGACGG (ssRNA, mCmCmGmAmAmCmUmGfCfCfCmUmCmGmAmUmCmGmAfCrGfCmAmCmAmGmAmCmGmGidT) [DTRI-013] had a Kd of 5.4 nM. ACGAACUGCCCUCGAUCGACGCACAGACGU (ssRNA, mAmCmGmAmAmCfUrGfCfCfCmUmCmGmAmUmCmGmAfCmGfCmAmCmAmGmAmCmGfU-idT) [T59 vrt16] returned a Kd in data set [9] of 132 nM.

B3: T90 vrt1 (ssRNA)
RNA: ACGAACUGCCCUCUAUUAUUUGACGCACAGACGU
modifications: 2'-F C2,U7,C9,C10,C11,U12,C24,C26,C32,U34; ribo A1,G3,G8,A23,G25,A27,G33; rest 2'-OMe; 3' idT
In data set [2] (setting [12]), B3 had a dissociation constant (Kd) of 0.9 nM. ACGAACUGCCCUCUAUUAUUUGACGCACAGACGU (ssRNA, 2'-F C9,C10,C11,C24,G25,C26; rest 2'-OMe; 3' idT) [T90 vrt7] displayed a Kd in data set [10] of 42 nM.

Regarding ACGAACUGCCCUCUAUUAUUUGACGCACAGACGU (ssRNA, 2'-F C9,C10,C11,C24,G25,C26,U34; rest 2'-OMe; 3' idT) [T90 vrt6], in [10], the Kd was determined as 46 nM. In data set [8], ACGAACUGCCCUCAGCUAUUUCAUUUGCUGACGCACAGACGU (ssRNA, 2'-F C and U; 2'-OH A and G; 3' idT) [T36] had a Kd of 11 nM. In data set [2] (tags: factor VIII free), ACGAACUGCCCUCGAUCGACGCACAGACGU (ssRNA, rAfCrGmAmAmCfUrGfCfCfCmUmCmGmAmUmCmGmAfCrGfCrAmCmAmGmAfCrGfU-idT) [T59 vrt2] showed a Kd of 5.5 nM.

B4: T25 vrt5 (ssRNA)
RNA: ACGAACUGCCCUCAGCUACUUUCAUGUUGCUGACGCACAGACGU
modifications: rAfCrGmAmAfCfUrGfCfCfCfUfCrArGfCfUrAfCfUfUfUfCrAfUrGfUfUrGfCfUrGrAfCrGfCrAfCmAmGmAfCrGfU-idT
On to B4, for which the dissociation constant (Kd) in [8] was 7.1 nM.

B5: T25 vrt17 (ssRNA)
RNA: B4 RNA
modifications: rAfCrGrArAfCmUrGfCfCfCfUfCrArGfCfUrAfCfUfUfUfCrAfUrGfUfUrGfCfUrGrAfCrGfCmAfCrArGrAfCrGfU-idT
B5: the affinity in [11], expressed as Kd, was 23 nM.

B6: T25 vrt6 (ssRNA)
RNA: B4 RNA
modifications: rAfCrGmAmAmCfUrGfCfCfCfUfCrArGfCfUrAfCfUfUfUfCrAfUrGfUfUrGfCfUrGrAfCrGfCrAmCmAmGmAfCrGfU-idT
In data set [3] (tags: factor VIII free), B6 returned a Kd of 3.1 nM.

B7: T25 vrt14 (ssRNA)
RNA: B4 RNA
modifications: mAfCrGrArAfCfUrGfCfCfCfUfCrArGfCfUrAfCfUfUfUfCrAfUrGfUfUrGfCfUrGrAfCrGfCrAfCrArGrAfCrGmU-idT
B7: binding in data set [6] was put at a Kd of 9.2 nM.
